Assay results: IntAct's records for PubMed 17483306

B1: ATPase 2, plasma membrane-type (Arabidopsis thaliana (Mouse-ear cress)), P19456 (parent)
chain: MSSLEDIKNETVDLEKIPIEEVFQQLKCSREGLTTQEGEDRIQIFGPNKLEEKKESKLLKFLGFMWNPLSWVMEMAAIMAIALANGDGRPPDWQDFVGIICLLVINSTISFIEENNAGNAAAALMAGLAPKTKVLRDGKWSEQEAAILVPGDIVSIKLGDIIPADARLLEGDPLKVDQSALTGESLPVTKHPGQEVFSGSTCKQGEIEAVVIATGVHTFFGKAAHLVDSTNQVGHFQKVLTAIGNFCICSIAIGMVIEIIVMYPIQRRKYRDGIDNLLVLLIGGIPIAMPTVLSVTMAIGSHRLSQQGAITKRMTAIEEMAGMDVLCSDKTGTLTLNKLSVDKNLVEVFCKGVEKDQVLLFAAMASRVENQDAIDAAMVGMLADPKEARAGIREVHFLPFNPVDKRTALTYIDGSGNWHRVSKGAPEQILELAKASNDLSKKVLSIIDKYAERGLRSLAVARQVVPEKTKESPGAPWEFVGLLPLFDPPRHDSAETIRRALNLGVNVKMITGDQLAIGKETGRRLGMGTNMYPSSALLGTHKDANLASIPVEELIEKADGFAGVFPEHKYEIVKKLQERKHIVGMTGDGVNDAPALKKADIGIAVADATDAARGASDIVLTEPGLSVIISAVLTSRAIFQRMKNYTIYAVSITIRIVFGFMLIALIWEFDFSAFMVLIIAILNDGTIMTISKDRVKPSPTPDSWKLKEIFATGVVLGGYQAIMTVIFFWAAHKTDFFSDTFGVRSIRDNNHELMGAVYLQVSIISQALIFVTRSRSWSFVERPGALLMIAFLIAQLIATLIAVYANWEFAKIRGIGWGWAGVIWLYSIVTYFPLDVFKFAIRYILSGKAWLNLFENKTAFTMKKDYGKEEREAQWALAQRTLHGLQPKEAVNIFPEKGSYRELSEIAEQAKRRAEIARLRELHTLKGHVESVVKLKGLDIETPSHYTV
partner: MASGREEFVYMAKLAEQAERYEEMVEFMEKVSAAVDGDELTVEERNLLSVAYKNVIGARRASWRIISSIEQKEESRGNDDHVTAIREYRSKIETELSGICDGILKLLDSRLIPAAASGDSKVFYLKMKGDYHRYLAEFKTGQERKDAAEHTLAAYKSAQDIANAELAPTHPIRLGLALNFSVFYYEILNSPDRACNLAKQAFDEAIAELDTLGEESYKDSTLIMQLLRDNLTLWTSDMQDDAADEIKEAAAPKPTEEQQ
B2: ATPase 2, plasma membrane-type (Arabidopsis thaliana (Mouse-ear cress)), P19456 (parent)
chain: B1 chain
partner: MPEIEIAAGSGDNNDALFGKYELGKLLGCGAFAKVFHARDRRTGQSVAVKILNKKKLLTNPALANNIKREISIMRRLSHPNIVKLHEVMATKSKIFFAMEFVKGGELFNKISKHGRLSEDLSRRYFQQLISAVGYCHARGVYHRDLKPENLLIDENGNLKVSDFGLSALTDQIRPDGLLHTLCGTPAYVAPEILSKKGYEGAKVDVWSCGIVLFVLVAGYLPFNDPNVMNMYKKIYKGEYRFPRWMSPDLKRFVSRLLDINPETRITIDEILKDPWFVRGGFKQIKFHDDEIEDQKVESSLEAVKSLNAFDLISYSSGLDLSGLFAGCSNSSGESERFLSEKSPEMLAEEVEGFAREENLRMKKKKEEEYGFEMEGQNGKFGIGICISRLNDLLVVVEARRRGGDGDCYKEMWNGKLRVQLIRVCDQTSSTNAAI

Variants of: B1
Settings: with 14332_arath GRF2, Q01525

| effect of a mutation on the interaction | Variant |
| --- | --- |
| decreasing interaction | R913A;S931D |
| disrupting interaction | S931D |
| increasing interaction | S931A |

Variants of: B2
Settings: with cipkb_arath CIPK11, O22932

| effect of a mutation on the interaction | Variant |
| --- | --- |
| disrupting interaction | S931A |
